{"source": "paper PMC12216891", "about": "(Scientific Reports, 2025)", "proteins": {"B1": {"name": "Thermochromatium tepidum form-IAq RuBisCO large subunit (RbcL) (natural protein, UniProt A0A6I6DX30 1-472, looked up)", "chain": "MAKTYSAGVKEYRETYWMPNYTPKDTDILACFKITPQPGVPREEAAAAVAAESSTGTWTTVWTDLLTDLDYYKGRAYAIEDVPGDDTCFYAFIAYPIDLFEEGSVVNVFTSLVGNVFGFKAVRALRLEDVRFPIAYVMTCNGPPHGIQVERDILNKYGRPLLGCTIKPKLGLSAKNYGRAVYECLRGGLDFTKDDENVNSQPFMRWRQRFDFVMEAIDKAERETGERKGHYLNVTAPTPEEMYKRAEYAKEIGAPIIMHDYITGGFCANTGLAQWCRNNGVLLHIHRAMHAVLDRNPHHGIHFRVLTKILRLSGGDHLHTGTVVGKLEGDRQATLGWIDLLRESYVKEDRSRGIFFDQDWGAMPGAFAVASGGIHVWHMPALVTIFGDDSVLQFGGGTLGHPWGNAAGACANRVALEACIEARNQGIPIEKEGKEVLTKAAAHSPELKIAMETWKEIKFEFDSVDKLDVAHK"}}, "target": "the molecule itself", "assay": "cryo-EM structure"}
{"protein": "B1", "values": [{"measurement": "stoichiometry N", "result": 8}]}
